Experiments:
Test in all cases: SPR
[1] = molecular target: recombinant α-enolase of oral streptococcal strain SV90
[2] = molecular target: recombinant α-enolase of Streptococcus oralis SV11 (IPM …) (Streptococcus oralis, UniProt A0A1X1IR15 1-434)
[3] = molecular target: recombinant α-enolase of Streptococcus salivarius SV17 (IPM FYENG—VY) (Streptococcus salivarius, UniProt J7THK5 1-434)
[4] = molecular target: recombinant α-enolase of Streptococcus salivarius SV41 (IPM …) (Streptococcus salivarius, UniProt J7THK5 1-434)

B1: human plasminogen (natural protein)
chain: EPLDDYVNTQGASLFSVTKKQLGAGSIEECAAKCEEDEEFTCRAFQYHSKEQQCVIMAENRKSSIIIRMRDVVLFEKKVYLSECKTGNGKNYRGTMSKTKNGITCQKWSSTSPHRPRFSPATHPSEGLEENYCRNPDNDPQGPWCYTTDPEKRYDYCDILECEEECMHCSGENYDGKISKTMSGLECQAWDSQSPHAHGYIPSKFPNKNLKKNYCRNPDRELRPWCFTTDPNKRWELCDIPRCTTPPPSSGPTYQCLKGTGENYRGNVAVTVSGHTCQHWSAQTPHTHNRTPENFPCKNLDENYCRNPDGKRAPWCHTTNSQVRWEYCKIPSCDSSPVSTEQLAPTAPPELTPVVQDCYHGDGQSYRGTSSTTTTGKKCQSWSSMTPHRHQKTPENYPNAGLTMNYCRNPDADKGPWCFTTDPSVRWEYCNLKKCSGTEASVVAPPPVVLLPDVETPSEEDCMFGNGKGYRGKRATTVTGTPCQDWAAQEPHRHSIFTPETNPRAGLEKNYCRNPDGDVGGPWCYTTNPRKLYDYCDVPQCAAPSFDCGKPQVEPKKCPGRVVGGCVAHPHSWPWQVSLRTRFGMHFCGGTLISPEWVLTAAHCLEKSPRPSSYKVILGAHQEVNLEPHVQEIEVSRLFLEPTRKDIALLKLSSPAVITDKVIPACLPSPNYVVADRTECFITGWGETQGTFGAGLLKEAQLPVIENKVCNRYEFLNGRVQSTELCAGHLAGGTDSCQGDSGGPLVCFEKDKYILQGVTSWGLGCARPNKPGVYVRVSRFVTWIEGVMRNN
Kd [1]: 300 nM
Kd [2]: 1600 nM
Kd [3]: 500 nM
Kd [4]: 300 nM

From paper PMC2972214 (2010)
